From the nanobody polyreactivity screen of Harvey et al. (2022)

Test: yeast display, Sf9 membrane polyspecificity reagent, FACS + sequencing; frameworks hold sequencing errors
Summary of the method: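 Synthetic nanobody libraries on Saccharomyces cerevisiae BJ5465 were galactose-induced for 36–48 hours, stained 1 hour at 4 °C with 10% biotinylated, detergent-solubilized Sf9 membrane reagent and enriched on streptavidin microbeads. FACS then separated cells into low and high (top ~1%) gates by anti-HA (expression) and streptavidin (reagent binding) fluorescence. Genes were colony-PCR amplified, MiSeq 2 × 250 sequenced and CDR-length filtered. A clone's polyreactivity label is that of its gate of origin.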

Sequence	polyreactivity (PSR sort gate)
QVQLVESGGGLVQAGGSLRLSCAASGSIFDFSAMGWYRQAPGKERELVAAISGSGGSTYYADSVKGRFTISRDNAKNTVYLQMNSLKPEDTAVYYCSYYYWGQGTQVTVSS	low polyreactivity
QVQLVESGGGLVQAGGSLRLSCAASGSIFDGNAMGWYREAPGKERELVAAISRRAGSTYYADSVKGRFTISRDNAKNTVYLQMNSLNPEDTAVYYCAASLYVPRFSRLGYDYWGQGTHVTVSS	high polyreactivity
QVQLVESGGGLVQAGGSLRLSCAASGSIFDGYGMGWYRQAAGKERELVAGITSGGSTYYADSVKGRFTFSRDNAKNTVYLQMNSLIPEDTAVYYCATVVRYSNARGDYWGQGTQVTVSS	low polyreactivity
QVQLVESGGGLVQAGGSLRLSCAASGSIFDHYARGWYRQAPGKDRELVAAISRSAGSTYYADSVKGRFTISRDHAKNTVYLQMNSLKPEDTAVYYCAADGKYYHRRPGWPIYDYWGQGTQVTVSS	high polyreactivity
QVQLVESGGGLVQAGGSLRLSCAASGSIFDINAMGWYRQAPGKERELVADISWSGGRTYYADSVKGRFTISRDNAKNTVYLQMNSLKPEDTAVYYCNAQDSRFWYAEYDYWGQGNQVTVSS	low polyreactivity
QVQLVESGGGLVQAGGSLRLSCAASGSIFDIYAMAWYRQAPGKERELVARIRGSGGRTYYADSVKGRFTISRDNAKNTVYLQMNSLKPEDTAVYYCNAGVRAVNRKYDYWGQGTQVTVSS	high polyreactivity
QVQLVESGGGLVQAGGSLRLSCAASGSIFDIYAMGWYREAPGKERELVAAISGRGGSTYADSVKGRFTISRDNAKNTVYLQMNSLKPEDTAVYYCATERHRFGGLYYWGQGTQVTVSS	low polyreactivity
QVQLVESGGGLVQAGGSLRLSCAASGSIFDIYAMGWYRQAPGKERELVAAISWIGDSTSYAESVKGRFTISRDNAKNTVYLQMNSLKPEDTAVYYCNAVVQGLADFQKYDYWGQGTQVTVSS	low polyreactivity
QVQLVESGGGLVQAGGSLRLSCAASGSIFDIYGMGWYRQAPGKERELVASISGGAGSTNYADSVKGRFTISRDNAKNTVYLQMNSLNPEDTAVYYCAAEVYVPDYFQHKFDVEYEYWGQGTQVTVSS	low polyreactivity
QVQLVESGGGLVQAGGSLRLSCAASGSIFDLNAMGWYRQAPGKERELVAAISKSGGSTYYADSVKGRFTISRDNAKNTVYLQMNSLKPEDTAVYYCAARYHYPGNWYNYWGQGTQVTVSS	low polyreactivity
QVQLVESGGGLVQAGGSLRLSCAASGSIFDLYAMGWYRQAPGKERELVADISIADSTNYADSVKGRFTISRDNAKNTVYLQMNSLKPEDTGVYYCNADVWWYSYEYDYWGQGTQVTVSS	low polyreactivity
QVQLVESGGGLVQAGGSLRLSCAASGSIFDLYAMGWYRQAPGTERELVADISIADSTNYADSVKGRFTISRDNAKNTVYLQMNSLKPEDTAVYYCNADVWWYSYEYDYWGQGTQVTVSS	low polyreactivity
QVQLVESGGGLVQAGGSLRLSCAASGSIFDNAMGWYRQAPGKERELVAAISLSGSRTYYADSVKGRFTISRDNAKNTDYLQMNSLKPEDTAVYYCNTELVYYSTYDYWGQGTQVTVSS	low polyreactivity
QVQLVESGGGLVQAGGSLRLSCAASGSIFDNNAMGWYRQAPGKERELVAAISRSGGSTYYADSVKGRFTISRDNAKNTVYLQMNSLKPDDTAVYYCAALPSRPRGYDYWGQGTQVTVSS	high polyreactivity
QVQLVESGGGLVQAGGSLRLSCAASGSIFDNYAMGWYRQAPGKERELVAAITSSGNTSYADSVKGRFTISRDNAKNTVYLQMNSLKPEDTAVYYCNADSQVKYTYNNHFDYWGQGTQVTVSS	low polyreactivity
QVQLVESGGGLVQAGGSLRLSCAASGSIFDPNAMGWYRQAPGKERELVAAISTSTGNTYYADSVKGRCTISRDNAKNTVYLQMNSLKPEDTAVYYCAAKGTPSYGSYHYDMDYWGQGTQVTVSS	low polyreactivity
QVQLVESGGGLVQAGGSLRLSCAASGSIFDPNAMGWYRQAPGKERELVAAITSGGGSTYYADSVKGRFTISRDNAKNTVYLEMNSLKPEDTAVYYCNKVFVLPYKFVAWFDYWGQGTQVTVSS	low polyreactivity
QVQLVESGGGLVQAGGSLRLSCAASGSIFDPYAMGWYIQAPGKERELVAVINDGGRTTYADSVKGRFTISRDNAKNTVYLQMNSLKPEDTAVYYCAADVGYFKSDYWGQGTQVTVSS	low polyreactivity
QVQLVESGGGLVQAGGSLRLSCAASGSIFDPYAMGWYRQAPGKERELVAAISFRGGGTYYADSVKGRFTISRDNAKNTVYLQMNSLKPEDTAVYYCNVDYYWISGYVGSYIEFDYWGQGTQVTVSS	low polyreactivity
QVQLVESGGGLVQAGGSLRLSCAASGSIFDPYAMGWYRQAPGKERELVAAISWSDSSTYYADSVKGRFTISRDNEKNTVYLQMNSLKPEDTAVYYSAAPSRYRYYWGNYWGQGTQVTVSS	high polyreactivity
QVQLVESGGGLVQAGGSLRLSCAASGSIFDPYAMGWYRQAPGKERELVAAITASGSSTYYADSVKGRFTISRDNAKNTVYLQMNSLKPEDTAVYYCAADRANWEYLLSWLGYDYWGQGTQVTVSS	low polyreactivity
QVQLVESGGGLVQAGGSLRLSCAASGSIFDQYTMGWSRQAPGKERELVAAIRFSGGSTSYADSVKGRFTISRDNAKNTVYLQMNSLIPEDTAVYYCNVDAITWWDWEDFDYWGQGTQVTVSS	low polyreactivity

Sequence	polyreactivity (PSR sort gate)
QVQLVESGGGLVQAGGSLRLSCAASGSIFDRNAMGRYRQAPGKERELVAAITSGGSTYYADSVKGRFTISRDNAKNTVYFQMNSLKPEDTAVYYCNADTDPPVPLYYWGQGTQVNVSS	low polyreactivity
QVQLVESGGGLVQAGGSLRLSCAASGSIFDRNAMGWYRQAPGKERELVAAISFSGGSTYYADSVKGRFTISRDNAKNTVYLQMNSLKPEDTAVYYCAKAGRYANLPYVYWGQGTQVTVSS	high polyreactivity
QVQLVESGGGLVQAGGSLRLSCAASGSIFDRNAMGWYRQAPGKERELVSAISRGGRTYYADSVKGRFTISRDNAKNTVYLQMNSLKPEDTAVYDCAAGYPSAWAYTTDDYWGQGTQVTVSS	low polyreactivity
QVQLVESGGGLVQAGGSLRLSCAASGSIFDRYAMGWYRQAPGKESELVAAITCGTSTYYADSVKGRFTISRDNAKNTVYLKMNSLKPEDTAVYYCNKGYSSSMDYWGQGTQVTVSS	low polyreactivity
QVQLVESGGGLVQAGGSLRLSCAASGSIFDSKAMGWFRQGPGKERELVAAINRSDASTYYADSVKGRFTISRDNAKNTVYLQMNSLKPEDTAVYYCAVEVYVYNVDIYDYWGQGTQVTVSS	low polyreactivity
QVQLVESGGGLVQAGGSLRLSCAASGSIFDSNTMGWYRQAPGKERELVAAITGTGTSTYYADSVKGRFTISRDNAKNTVYLQMNSLKPEDTAVYYCAADLEYKTWWYDYWGQGTQVTVSS	low polyreactivity
QVQLVESGGGLVQAGGSLRLSCAASGSIFDSYAMGWYRQAPGKERELVAGIDSTGDTSYADSVKGRFTISRDNAKNTVYLQMNSLKPEDTAVYYCAKEYPGDSVQASDEPWGMGYWGQGTQVTVSS	low polyreactivity
QVQLVESGGGLVQAGGSLRLSCAASGSIFDSYAMGWYRQAPGKERELVATINTSGGSTYYADSVKGRFTIHDNAKNTVYLQKNSLKPEDTAVYYCNAGRWVYWQNNFGDYGYWGQGTQVTVSS	low polyreactivity
QVQLVESGGGLVQAGGSLRLSCAASGSIFDSYAMGWYRQAPGKERELVATINTSGGSTYYADSVKGRFTIHDNAKNTVYLQMNSLKPEDTAVYYCAVVVHYSTIGGGYRPRMYYWGQGTQVTVSS	low polyreactivity
QVQLVESGGGLVQAGGSLRLSCAASGSIFDSYAMGWYRQAPGKERELVAVISESGGTTYYADSVKGRFTISRDNAKNTVYLQMNSLKPEDTAVYYCAAVWYYQFGVWGYYWGQGTQVTVSS	low polyreactivity
QVQLVESGGGLVQAGGSLRLSCAASGSIFDSYVMGWYRQAPGKERELVAAITYSGGSTYADSVKGRFTISRDNAKNTVYLQMNSLKPEDTAVYYCAADLSGGSRYDYWGQGTQVTVSS	low polyreactivity
QVQLVESGGGLVQAGGSLRLSCAASGSIFDTNAMGWYRQAPGKERELVAAIRWSGGRTYYADSVKGRFTISRDNAKITVYLQMNSLKPEDTAVYYCNKVPRTPIPYKYGYWGQGTQVTVSS	high polyreactivity
QVQLVESGGGLVQAGGSLRLSCAASGSIFDTYAMGWYRQAPGKERELVAAITWGGGRTYYADSVKGRFTISRDNAKNTVYLQMNSLKPEDTAVYYCAARWRLRGGNQRYGYWGQGTQVTVSS	high polyreactivity
QVQLVESGGGLVQAGGSLRLSCAASGSIFDTYAMGWYRQAPGQERELVAAITSGGSTNYADSVKGRFTISRDNAKNTVYLQMNSLKPEETAVYYCAADAEDRPSWPGNSEYEYWGQGTQVTVSS	low polyreactivity
QVQLVESGGGLVQAGGSLRLSCAASGSIFDTYSMGWYIQAPGKERELVAAISSGGRTYYADSVKGRFTISRDNAKNTVYLQMNSLKPEDTAVYYCNARYHARYGGDYWGQGTQVTVSS	high polyreactivity
QVQLVESGGGLVQAGGSLRLSCAASGSIFDVNAMGWYRQAPGIERDLVAAISQRGTRTYYADSVKGRFTISRDNAKNTVYLQMNSLKPEDTAVYYCAARVPSVGNQSGYDYWGQGTQVTVSS	high polyreactivity
QVQLVESGGGLVQAGGSLRLSCAASGSIFDVNAMGWYRQAPGKERELVAAITSSGGSTYYADSVKGRFTISRDNAKNTVYLQMNSLKPVDTAVYYCAAYSLYTMYWGQGTQVTVSS	low polyreactivity
QVQLVESGGGLVQAGGSLRLSCAASGSIFDVNAMGWYRQAPGKESELVAAISDSGGSTYYADSVKGRFTISRDNAKTTVYLQMTSLKQEDTAVYYCNADWSWYNYYDFDYWGQGTQVTVSS	low polyreactivity
QVQLVESGGGLVQAGGSLRLSCAASGSIFDVNAMGWYRQAPWKERELVAAISDSGGSTYYADSVKGRFTISRDNANNTVYLQMNSLKPEDTAVYYCNADWSWYNYYDFDYWGQGTQVTVSS	low polyreactivity
QVQLVESGGGLVQAGGSLRLSCAASGSIFDVYAMGWYRQAPGKERELVATISNSAGSTYYADSVKGRFTISRDNAKNTVYLQMNSLKPEDTAVYYCAAVVVYFDEYDYWGQGTQVTVSS	low polyreactivity
QVQLVESGGGLVQAGGSLRLSCAASGSIFDVYGMGWYRQAPGKEREFVADITSRGTRTYYADSVKGRFTISRDNAKNTVYLQMNSLKPEDTAVYYCNTLVGVDFWLVDYWGQGTQVTLSS	low polyreactivity
